Reference: patent US20260108588A1, “A COMPLEX COMPRISING A ALPHA-LACTALBUMIN AND A FATTY ACID OR LIPID FOR USE IN THE TREATMENT OR PREVENTION OF CANCER” (LINNANE PHARMA AB, priority 2022, published 2026)

System: intestine of tumor bearing APC^Min/+ mice
Assay: Real-time in vivo fluorescence imaging and immunohistochemistry of BAMLET in tumor-bearing mice
Source text: Swiss rolls of longitudinally opened intestinal segments were fixed overnight in 10% neutral buffered formalin. Samples were embedded in paraffin and 5 μm thick sections were further processed for histology and immunohistochemistry using antibodies for bovine alpha-Lactalbumin (ThermoFisher Scientific, Cat #A10-128A), β-catenin (CellSignaling, Cat #9562), Cyclin D1 (ThermoFisher Scientific, Cat #SC8396), Ki-67 (BD Biosciences, Cat #556003), VEGF (Abcam, Cat #ab46154), PD-1 (Abcam, Cat #ab214421) and TTF-1 (Abcam, Cat #ab227652) as previously described^28 with slight modifications. Citrate buffer (Dako Target Retrieval Solution, Agilent, Cat #S1699) was used for antigen retrieval for Cyclin D1, Ki-67, VEGF, bovine alpha-Lactalbumin and β-catenin staining. EDTA buffer (Abcam, Cat #ab64216) was used for antigen retrieval for TTF-1 staining. Immunohistochemistry was quantified by ImageJ. For Hematoxylin-Eosin (H&E) staining, Hematoxylin (ThermoFisher Scientific, Cat #7211) was used followed by Eosin-Y (ThermoFisher Scientific, Cat #7111) for counterstaining. Images were captured using the AX10 microscope or the Hamamatzu Nanozoomer scanner (Carl Zeiss) and the DAB-positive beta-catenin antibody fields (4-10) for each organ cross-sections were quantified by ImageJ.
BAMLET was labeled using VivoTag 680XL Protein Labeling Kit (Perkin Elmer). Apc^Min/+ mice were orally gavaged with 10 mg of VivoTag 680-labelled BAMLET in 200 μl of PBS. The intestinal tissue samples were collected after 24 hours or 48 hours and imaged using an IVIS Spectrum imaging system (Perkin Elmer). BAMLET signal was acquired at fluorescent settings with 680 nm excitation.

## BAMLET
18-week-old APC^Min/+ mice, oral gavage, after 24 and 48 hours
  retention of VivoTag 680-labeled BAMLET in the intestine: Significant retention
After the first oral dose
  time retained in tumor tissue: at least 48 hours
Immunohistochemistry with BAMLET specific antibodies
  BAMLET staining in intestinal tissue sections: detected
